# Data: the supplement of paper PMC10567573
# B1: NET1 (parent)
# chain: RVRPLARVTSLANLISPVRNGAVR
# Variants of: B1
# Assay: protein stability index of a GFP-peptide fusion (GPS, HEK-293T) (PSI 1-6); higher = more stable
# Conditions: c terminus: a fixed tail appended
# 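Further: lentivirally expressed fusions sorted by FACS into six bins by GFP to DsRed ratio, PSI derived from sequencing read proportions per bin multiplied by bin number.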
row,Variant,protein stability index
1,RVRPLARVTSLANLISPVCNGAVR,2.99
2,RVRPLARVTSLANLISPVKNGAVR,2.59
3,RVRPLARVTSLANLISPVSNGAVR,3.2
4,RVRPLARVTSLANLISPVENGAVR,3.55
5,RVRPLARVTSLANLISPVINGAVR,3.02
6,RVRPLARVTSLANLISPVPNGAVR,2.68
7,RVRPLARVTSLANLISPVTNGAVR,3.3
8,RVRPLARVTSLANLISPVLNGAVR,2.81
9,RVRPLARVTSLANLISPVNNGAVR,3.28
10,RVRPLARVTSLANLISPVWNGAVR,1.82
11,RVRPLARVTSLANLISPVYNGAVR,2.19
12,RVRPLARVTSLANLISPVFNGAVR,2.29
13,RVRPLARVTSLANLISPVQNGAVR,3.06
14,RVRPLARVTSLANLISPVHNGAVR,2.69
15,RVRPLARVTSLANLISPVDNGAVR,3.76
16,RVRPLARVTSLANLISPVMNGAVR,2.53
17,RVRPLARVTSLANLISPVANGAVR,2.96
18,RVRPLARVTSLANLISPVVNGAVR,3.6
19,RVRPLARVTSLANLISPVGNGAVR,3.4
20,RVRPLARVTSLANLISPVRNIAVR,2.87
21,RVRPLARVTSLANLISPVRNCAVR,2.75
22,RVRPLARVTSLANLISPVRNMAVR,2.69
23,RVRPLARVTSLANLISPVRNWAVR,2.31
24,RVRPLARVTSLANLISPVRNFAVR,2.42

row,Variant,protein stability index
1,RVRPLARVTSLANLISPVRNPAVR,3.52
2,RVRPLARVTSLANLISPVRNNAVR,2.88
3,RVRPLARVTSLANLISPVRNLAVR,2.68
4,RVRPLARVTSLANLISPVRNDAVR,2.55
5,RVRPLARVTSLANLISPVRNTAVR,3.35
6,RVRPLARVTSLANLISPVRNVAVR,2.69
7,RVRPLARVTSLANLISPVRNSAVR,3.56
8,RVRPLARVTSLANLISPVRNHAVR,2.85
9,RVRPLARVTSLANLISPVRNQAVR,3.12
10,RVRPLARVTSLANLISPVRNKAVR,2.71
11,RVRPLARVTSLANLISPVRNYAVR,2.82
12,RVRPLARVTSLANLISPVRNRAVR,2.42
13,RVRPLARVTSLANLISPVRNEAVR,3.08
14,RVRPLARVTSLANLISPVRNAAVR,3.62
15,RVRPLARVTSLANLISPRRNGAVR,3.15
16,RVRPLARVTSLANLISPYRNGAVR,2.23
17,RVRPLARVTSLANLISPSRNGAVR,4.17
18,RVRPLARVTSLANLISPWRNGAVR,2.25
19,RVRPLARVTSLANLISPTRNGAVR,3.68
20,RVRPLARVTSLANLISPVRFGAVR,2.26
21,RVRPLARVTSLANLISPVRCGAVR,2.72
22,RVRPLARVTSLANLISPVRPGAVR,2.94
23,RVRPLARVTSLANLISPVRKGAVR,2.49
24,RVRPLARVTSLANLISPVRMGAVR,2.54

row,Variant,protein stability index
1,RVRPLARVTSLANLISPVRQGAVR,3.75
2,RVRPLARVTSLANLISPVRSGAVR,2.74
3,RVRPLARVTSLANLISPVRIGAVR,2.66
4,RVRPLARVTSLANLISPVRAGAVR,2.91
5,RVRPLARVTSLANLISPVRVGAVR,2.64
6,RVRPLARVTSLANLISPVRDGAVR,3.2
7,RVRPLARVTSLANLISPVRGGAVR,2.96
8,RVRPLARVTSLANLISPVRHGAVR,3.3
9,RVRPLARVTSLANLISPVRLGAVR,3.29
10,RVRPLARVTSLANLISPVRWGAVR,2.33
11,RVRPLARVTSLANLISPVRRGAVR,2.57
12,RVRPLARVTSLANLISPVRYGAVR,2.52
13,RVRPLARVTSLANLISPVREGAVR,3.33
14,RVRPLARVTSLANLISPVRTGAVR,2.79
15,RVRPLARVTSLANLISPVRNGEVR,3.52
16,RVRPLARVTSLANLISPVRNGIVR,2.76
17,RVRPLARVTSLANLISPVRNGVVR,2.75
18,RVRPLARVTSLANLISPVRNGFVR,2.4
19,RVRPLARVTSLANLISPVRNGDVR,3.35
20,RVRPLARVTSLANLISPVRNGGVR,3.18
21,RVRPLARVTSLANLISPVRNGLVR,2.62
22,RVRPLARVTSLANLISPVRNGTVR,3.46
23,RVRPLARVTSLANLISPVRNGHVR,3.03
24,RVRPLARVTSLANLISPVRNGCVR,2.92

row,Variant,protein stability index
1,RVRPLARVTSLANLISPVRNGPVR,3.49
2,RVRPLARVTSLANLISPVRNGMVR,2.25
3,RVRPLARVTSLANLISPVRNGQVR,3.69
4,RVRPLARVTSLANLISPVRNGSVR,3.37
5,RVRPLARVTSLANLISPVRNGNVR,3.02
6,RVRPLARVTSLANLISPVRNGKVR,3.36
7,RVRPLARVTSLANLISPVRNGWVR,1.86
8,RVRPLARVTSLANLISPVRNGYVR,2.54
9,RVRPLARVTSLANLISPVRNGRVR,3.36
10,RVRPLARVTSLANLISPVRNGAVI,2.54
11,RVRPLARVTSLANLISPVRNGAVW,2.44
12,RVRPLARVTSLANLISPVRNGAVT,2.39
13,RVRPLARVTSLANLISPVRNGAVA,2.98
14,RVRPLARVTSLANLISPVRNGAVC,3.21
15,RVRPLARVTSLANLISPVRNGAVQ,3.37
16,RVRPLARVTSLANLISPVRNGAVH,2.38
17,RVRPLARVTSLANLISPVRNGAVV,2.63
18,RVRPLARVTSLANLISPVRNGAVK,3.47
19,RVRPLARVTSLANLISPVRNGAVN,2.91
20,RVRPLARVTSLANLISPVRNGAVG,2.93
21,RVRPLARVTSLANLISPVRNGAVF,2.44
22,RVRPLARVTSLANLISPVRNGAVP,2.93
